Source: patent publication US20240034786A1 (WUXI BIOLOGICS IRELAND, published 2024)

Tests used:
[1] = target: T1, Human P-cadherin on cells (human, UniProt P22223 108-829); experiment: FACS on HCT-116 cells, antibody kept in human serum at 37 C, Day 4
T1 construct: whole, on cells; Endogenous P-cadherin on tumour cell lines; also called hPro1
Experimental: (§1) The antibody stability in human serum was tested by FACS. Briefly, human serum was freshly isolated by centrifuging the fresh blood twice at 4000 rpm for 10 minutes. […] As a control, antibodies serum mix was frozen immediately without 37° C. incubation. For the FACS analysis, the samples from different time points were free-thawed simultaneously at 4° C. […] The cells were washed twice with 1% BSA/1×PBS (Ca+/Mg+). Alexa647 conjugated Goat anti-human IgG Fc (Jackson, #109-605-098) 1:500 diluted in 1% BSA/1×PBS (Ca+/Mg+) were added to the cells and incubated at 4° C. for 30 minutes. Cells were washed twice in the same buffer and the mean fluorescence (MFI) of stained cells was measured using a FACS Canto II cytometer (BD Biosciences) and analyzed by FlowJo. Wells containing no antibody or secondary antibody only were used to establish background fluorescence. Four-parameter non-linear regression analysis was used to obtain EC50 values for cell binding using GraphPad Prism6 software.

[2] = target: T1, Human P-cadherin on cells; experiment: FACS on DU-145 cells
Experimental: (§2) Binding of the test antibodies to P-cadherin expressed on cells was determined by flow cytometry analysis. […] 1×10⁵ cells/well (100 μL) were added to each well of a 96-well U-plate (Corning, #3799) and centrifuged at 1500 rpm (Eppendorf, #5810R) for 5 minutes before removing the supernatant. Antibodies serially diluted in 1% BSA/1×PBS (Ca+/Mg+) were added at 100 μL/well to the pelleted cells and incubated at 4° C. for 1 hour. Anon-related hIgG1 antibody was used as an isotype control. Cells were washed two times with 180 μL/well of 1% BSA/1×PBS (Ca+/Mg+) by centrifugation at 1500 rpm for 5 minutes at 4° C. Pelleted cells were resuspended in 100 μL/well Alexa647 conjugated Goat anti-human IgG Fc (Jackson, #109-605-098) 1:500 diluted in 1% BSA/1×PBS (Ca+/Mg+) for 30 minutes at 4° C. in the dark. Cells were then washed two times as described above. After the final wash, cells were resuspended in 100 μL 1% BSA/1×PBS (Ca+/Mg+) and fluorescence values were measured with a FACS Canto II cytometer (BD Biosciences). The amount of cell surface bound anti-P-cadherin antibody was assessed by measuring the mean fluorescence (MFI). The FACS raw data were analyzed by FlowJo software, wells containing no antibody or secondary antibody only were used to establish background fluorescence. Binding EC50 values were obtained by the four-parameter non-linear regression analysis using GraphPad Prism6 software.

[3] = target: T1, Human P-cadherin on cells; experiment: FACS on HCT-116 cells, antibody kept in human serum at 37 C, Day 7
Experimental: as §1

[4] = target: T1, Human P-cadherin on cells; experiment: cell-based or functional assay
[5] = target: T2, Cyno P-cadherin on W319-CHOK1.cynoPro1.FL cells (cynomolgus, UniProt A0A2K5WPN9 108-829); experiment: FACS on CHOK1 cells transiently expressing cyno P-cadherin
T2 construct: whole, on cells; also called cynomolgus P-cadherin; W391-CHOK1.cynoPro1.FL (transient)
Experimental: as §2, with “Binding EC50 values were obtained by the four-parameter non-linear regression analysis using GraphPad Prism6 software.” left out
Binding of the test antibodies to cynomolgus P-cadherin expressed on cells was determined by flow cytometry analysis. […]

[6] = target: T3, W319-hPro1.D123.ECD.hFc (WT) (human, UniProt P22223 108-461); experiment: direct ELISA on coated antigen
T3 construct: range 108-461; also called Human P-cadherin ECD domain 1&2&3; domain 1-3; not shown: human Fc by the code hFc
Experimental: (§3) The binding of the antibodies to W319-hPro1.D1.ECD.hFc, W319-hPro1.D12.ECD.hFc (WT), W319-hPro1.D123.ECD.hFc (WT), W319-hPro1.D1234.ECD.hFc (WT) (2.5) and W319-hPro1.ECD.hFc (WT)-P3 were tested by a direct protein binding ELISA. 96-well high protein binding ELISA plates (Nunc MaxiSorp, ThermoFisher, Cat #: 442404) were coated overnight at 4° C. with 1 μg/mL antigens in Carbonate-bicarbonate buffer (20 mM Na2CO3, 180 mM NaHCO3, pH=9.2). All wells were washed three time with 300 μL per well of PBS/0.5‰ Tween-20 (v/v) and all the following wash steps in the assay were performed the same. The wells were then blocked for one hour with 2% BSA (Bovogen, Cat #: BSAS)/1×PBS (Ca+/Mg+) (Gibco, #14040-117) and washed three times. For the primary antibody binding, the testing antibodies including the BMKs and our antibodies serially diluted in 2% BSA/1×PBS (Ca+/Mg+) were added to the relevant wells and incubated at room temperature for two hours. Plates were washed three times prior to the addition of 100 μL of secondary antibody Goat anti-Human-IgG-F(ab′)2-HRP (Jackson, Cat #: 109-035-097) 5000-fold diluted in 2% BSA/1×PBS (Ca+/Mg+). Plates were incubated at room temperature for one hour, followed by six washes as describe above.
(§4) For the binding detection, 100 μL Tetramethylbenzidine (TMB) Substrate solution (Invitrogen, Cat #: 002023) was added to all wells for 10 minutes before stopping the reaction with 100 μL 2M HCl. The extent of the testing Abs binding to W319-hPro1.D1.ECD.hFc, W319-hPro1.D12.ECD.hFc (WT), W319-hPro1.D123.ECD.hFc (WT), W319-hPro1.D1234.ECD.hFc (WT) and W319-hPro1.ECD.hFc (WT)-P3 were determined by measuring the OD450 absorbance using the SpectraMax® M5e microplate reader. Wherever appropriate, binding EC50 values were obtained by the four-parameter non-linear regression analysis using GraphPad Prism 5 software.
(§5) Its binding epitope is different from BMKs.

W319-hPro1.D1.ECD.hFc = target: T4, W319-hPro1.D1.ECD.hFc (human, UniProt P22223 108-236); experiment: direct ELISA on coated antigen
T4 construct: range 108-236; also called Human P-cadherin ECD domain 1; not shown: human Fc by the code hFc
Experimental: as §3, §4, §5

[7] = target: T1, Human P-cadherin on cells; experiment: cell-based or functional assay; remark: listed apart in the source

T1 sequence (P22223 108-829): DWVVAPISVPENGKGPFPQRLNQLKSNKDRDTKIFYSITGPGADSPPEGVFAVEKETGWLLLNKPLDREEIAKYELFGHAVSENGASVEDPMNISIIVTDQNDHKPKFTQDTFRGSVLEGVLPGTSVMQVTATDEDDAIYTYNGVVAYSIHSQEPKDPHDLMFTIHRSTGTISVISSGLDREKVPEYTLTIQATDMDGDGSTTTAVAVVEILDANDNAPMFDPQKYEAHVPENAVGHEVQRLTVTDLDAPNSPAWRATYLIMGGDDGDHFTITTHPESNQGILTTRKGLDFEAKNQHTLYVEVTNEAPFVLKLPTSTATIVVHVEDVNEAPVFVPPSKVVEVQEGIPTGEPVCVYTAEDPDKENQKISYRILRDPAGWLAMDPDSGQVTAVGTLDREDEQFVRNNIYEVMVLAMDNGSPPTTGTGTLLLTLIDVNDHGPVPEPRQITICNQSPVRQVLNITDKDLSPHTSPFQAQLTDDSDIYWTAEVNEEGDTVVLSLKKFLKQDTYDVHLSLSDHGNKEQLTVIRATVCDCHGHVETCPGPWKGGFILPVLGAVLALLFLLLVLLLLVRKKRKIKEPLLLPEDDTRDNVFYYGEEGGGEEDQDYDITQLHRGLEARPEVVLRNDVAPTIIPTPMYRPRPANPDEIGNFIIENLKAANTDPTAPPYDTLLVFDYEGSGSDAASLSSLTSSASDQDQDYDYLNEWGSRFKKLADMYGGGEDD
T3 sequence (P22223 108-461): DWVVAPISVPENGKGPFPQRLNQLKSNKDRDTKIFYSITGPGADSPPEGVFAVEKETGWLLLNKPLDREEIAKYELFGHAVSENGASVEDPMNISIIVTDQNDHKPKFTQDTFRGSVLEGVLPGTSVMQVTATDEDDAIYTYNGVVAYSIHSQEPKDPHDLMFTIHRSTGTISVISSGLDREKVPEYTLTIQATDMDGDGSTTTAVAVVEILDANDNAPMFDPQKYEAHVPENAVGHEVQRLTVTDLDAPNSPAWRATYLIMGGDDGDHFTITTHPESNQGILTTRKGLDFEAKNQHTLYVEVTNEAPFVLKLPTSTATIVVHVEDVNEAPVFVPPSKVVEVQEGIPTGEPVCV
T4 sequence (P22223 108-236): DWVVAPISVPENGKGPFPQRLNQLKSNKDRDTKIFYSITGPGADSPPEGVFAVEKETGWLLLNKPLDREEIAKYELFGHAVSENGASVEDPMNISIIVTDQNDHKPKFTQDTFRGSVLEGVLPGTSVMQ

EC50 [1]: 0.16 nM
EC50 [2]: 0.07 nM
Max MFI [2]: 2100
EC50 [3]: 0.21 nM
internalization, Fab-ZAP on HCC-1954, IC50 [4]: 0.069 nM
internalization, Fab-ZAP on HCC-1954, Max Inh % [4]: 81%
EC50 [5]: 0.095 nM
EC50 [6]: 0.08 nM
Max OD450 [6]: 2.83
Max OD450 (W319-hPro1.D1.ECD.hFc): 0.07
internalization, HCS assay on HCC-1954, EC50 [7]: 0.029 nM
B1: W3195-1.53.1-p1-uIgG1L (antibody)
heavy: not shown
light: SYELTQPPSVSVSPGQTAQITCSGDKLGDKFASWYQQKSGQSPVVVIYQDNKRPSGFPERFSGSNSGNTATLTISGTQAMDEADYYCQAWDSSIVVFGGGTKLTVLGQPKAAPSVTLFPPSSEELQANKATLVCLISDFYPGAVTVAWKADSSPVKAGVETTTPSKQSNNKYAASSYLSLTPEQWKSHRSYSCQVTHEGSTVEKTVAPTECS
notes: also called W3195-p1 antibody
